Measurements taken from patent publication US9163048B2, “Multi-functional nucleic acid-based anti-cancer drug capable of targeting and therapy, method for preparing same and anti-cancer composition comprising same” (RESEARCH & BUSINESS FOUNDATION SUNGKYUNKWAN UNIVERSITY, priority 2011, dated 2015).

B1: linear nucleic acid (nucleic acid)
chain 1: GCTACGAGTAGGTACGGATCTGGCTGTACTGATGTGCCTGCGAC
chain 2: GTCGCAGGCACATCAGTACAGCCAGATCCGTACCTACTCG
modifications: chemistry not given here

Columns and labels:
[1] = system: prostate cancer cells (LNCaP cell line); assay: Anticancer effect, acridine orange / propidium iodide staining, confocal microscope; format: cell-based; conditions: 2 hours treatment, 24 hours culture, NIR radiation 10 minutes, 10 μM contained doxorubicin
Protocol: In addition, after the cells were treated with 10 μM (concentration of the contained doxorubicin) of the multifunctional nucleic-acid-based anticancer drug for 2 hours, the medium was exchanged with a fresh RPMI 1640 medium to remove the multifunctional nucleic-acid-based anticancer drug remaining at an outside of the cells, and the cells were cultured for 24 hours. Afterward, the cells were irradiated with […] for 10 minutes, and stained with acridine orange and propidium iodide (PI). As a control group, instead of the multifunctional nucleic-acid-based anticancer drug, a test was performed using phosphate buffered saline, doxorubicin, gold nanoparticles, an A10 aptamer and an anticancer-drug-captured nucleic acid structure.
This means that the multifunctional nucleic-acid-based anticancer drug can kill cells more effectively by applying both doxorubicin (chemotherapy) and an exothermic effect (thermal treatment).

[2] = Capture of doxorubicin in linear nucleic acid, autofluorescence of unbound doxorubicin in supernatant; format: physicochemical; conditions: per 1 μM linear nucleic acid (SEQ ID NOs 1 and 2); room temperature, 24 hours
Text: A supernatant was retrieved, and autofluorescence of the doxorubicin not binding to the linear nucleic acid was detected using a molecular device (SpectraMax M2 Microplate Reader).

Row | Molecule | cell death (PI staining, red fluorescence) [1] | maximum doxorubicin bound per 1 μM linear nucleic acid [2] [µM]
1 | COc1cccc2c1C(=O)c1c(O)c3c(c(O)c1C2=O)C[C@@](O)(C(=O)CO)C[C@@H]3O[C@H]1C[C@H](N)[C@H](O)[C@H](C)O1 [doxorubicin, reference compound] | dead cells stained with PI were observed | 
2 | B1 | red fluorescence was hardly observed | 10
